Laboratory results from patent publication CN110357960A (GUANGZHOU AISIMAI BIOMEDICAL TECH CO LTD, dated 2019).

B1: 抗Her2×抗CD3双特异性抗体MutC (bispecific antibody, human IgG1, kappa)
heavy 1: EVQLVESGGGLVQPGGSLRLSCAASGFTFNTYAMNWVRQAPGKGLEWVARIRSKYNNYATYYADSVKDRFTISRDDSKNSLYLQMNSLKTEDTAVYYCARHGNFGNSYVSWFAYWGQGTLVTVSSISSASTKGPSVFPLAPSSKSTSGGTAALGCLVKDYFPEPVTVSWNSGALTSGVHTFPAVLQSSGLYSLSSVVTVPSSSLGTQTYICNVNHKPSNTKVDKKVEPKSCDKTHTCPPCPAPELLGGPSVFLFPPKPKDTLMISRTPEVTCVVVDVSHEDPEVKFNWYVDGVEVHNAKTKPREEQYNSTYRVVSVLTVLHQDWLNGKEYKCKVSNKALPAPIEKTISKAKGQPREPQVYTLPPSREEMTKNQVSLTCLVKGFYPSDIAVEWESNGQPENNYKTTKKKLDSDGSFFLYSKLTVDKSRWQQGNVFSCSVMHEALHNHYTQKSLSLSPGK
light 1: QTVVTQEPSLTVSPGGTVTLTCGSSTGAVTTSNYANWVQEKPGQAPRGLIGGTNKRAPWTPARFSGSLLGGKAALTITGAQAEDEADYYCALWYSNLWVFGGGTKLTVLGKLVTMEIKRTVAAPSVFIFPPSDEQLKSGTASVVCLLNNFYPREAKVQWKVDNALQSGNSQESVTEQDSKDSTYSLSSTLTLSKADYEKHKVYTCEVTHQGLSSPVTKSFNRGEC
heavy 2: not shown
light 2: DIQMTQSPSSLSASVGDRVTITCRASQDVNTAVAWYQQKPGKAPKLLIYSASFLYSGVPSRFSGSRSGTDFTLTISSLQPEDFATYYCQQHYTTPPTFGQGTKLVTMEIKRTVAAPSVFICPPSDEQLKSGTASVVCLLNNFYPREAKVQWKVDNALQSGNSQESVTEQDSKDSTYSLSSTLTLSKADYEKHKVYTCEVTHQGLSSPVTKSFNRGES
B2: 抗Her2×抗CD3双特异性抗体MutC-ER (bispecific antibody, human IgG1, kappa)
heavy 1: EVQLVESGGGLVQPGGSLRLSCAASGFTFNTYAMNWVRQAPGKGLEWVARIRSKYNNYATYYADSVKDRFTISRDDSKNSLYLQMNSLKTEDTAVYYCARHGNFGNSYVSWFAYWGQGTLVTVSSISSASTKGPSVFPLAPSSKSTSGGTAALGCLVKDYFPEPVTVSWNSGALTSGVHTFPAVLQSSGLYSLSSVVTVPSSSLGTQTYICNVNHKPSNTKVDKKVEPKSCDKTHTCPPCPAPELLGGPSVFLFPPKPKDTLMISRTPEVTCVVVDVSHEDPEVKFNWYVDGVEVHNAKTKPREEQYNSTYRVVSVLTVLHQDWLNGKEYKCKVSNKALPAPIEKTISKAKGQPREPQVYTLPPSREEMTKNQVSLTCLVKGFYPSDIAVEWESNGQPENNYKTTKKKLDSDGSFFLYSKLTVDKSRWQQGNVFSCSVMHEALHNHYTQKSLSLSPGK
light 1: QTVVTQEPSLTVSPGGTVTLTCGSSTGAVTTSNYANWVQEKPGQAPRGLIGGTNKRAPWTPARFSGSLLGGKAALTITGAQAEDEADYYCALWYSNLWVFGGGTKLTVLGKLVTMEIKRTVAAPSVFIFPPSDEQLKSGTASVVCLLNNFYPREAKVQWKVDNALQSGNSQESVTEQDSKDSTYSLSSTLTLSKADYEKHKVYTCEVTHQGLSSPVTKSFNRGEC
heavy 2: not shown
light 2: DIQMTQSPSSLSASVGDRVTITCRASQDVNTAVAWYQQKPGKAPKLLIYSASFLYSGVPSRFSGSRSGTDFTLTISSLQPEDFATYYCQQHYTTPPTFGQGTKLVTMEIKRTVAAPSVFICPPSDEQLKSGTASVVCLLNNFYPREAKVQWKVDNALQSGNSQESVTEQDSKDSTYSLSSTLTLSKADYEKHKVYTCEVTHQGLSSPVTKSFNRGRS
B3: 抗Her2×抗CD3双特异性抗体MutC+ER (bispecific antibody)
chain 1: EVQLVESGGGLVQPGGSLRLSCAASGFTFNTYAMNWVRQAPGKGLEWVARIRSKYNNYATYYADSVKDRFTISRDDSKNSLYLQMNSLKTEDTAVYYCARHGNFGNSYVSWFAYWGQGTLVTVSSISSASTKGPSVFPLAPSSKSTSGGTAALGCLVKDYFPEPVTVSWNSGALTSGVHTFPAVLQSSGLYSLSSVVTVPSSSLGTQTYICNVNHKPSNTKVDKKVEPESCDKTHTCPPCPAPELLGGPSVFLFPPKPKDTLMISRTPEVTCVVVDVSHEDPEVKFNWYVDGVEVHNAKTKPREEQYNSTYRVVSVLTVLHQDWLNGKEYKCKVSNKALPAPIEKTISKAKGQPREPQVYTLPPSREEMTKNQVSLTCLVKGFYPSDIAVEWESNGQPENNYKTTKKKLDSDGSFFLYSKLTVDKSRWQQGNVFSCSVMHEALHNHYTQKSLSLSPGK
chain 2: QTVVTQEPSLTVSPGGTVTLTCGSSTGAVTTSNYANWVQEKPGQAPRGLIGGTNKRAPWTPARFSGSLLGGKAALTITGAQAEDEADYYCALWYSNLWVFGGGTKLTVLGKLVTMEIKRTVAAPSVFIFPPSDEQLKSGTASVVCLLNNFYPREAKVQWKVDNALQSGNSQESVTEQDSKDSTYSLSSTLTLSKADYEKHKVYTCEVTHQGLSSPVTKSFNRGRC
chain 3: not shown
chain 4: DIQMTQSPSSLSASVGDRVTITCRASQDVNTAVAWYQQKPGKAPKLLIYSASFLYSGVPSRFSGSRSGTDFTLTISSLQPEDFATYYCQQHYTTPPTFGQGTKLVTMEIKRTVAAPSVFICPPSDEQLKSGTASVVCLLNNFYPREAKVQWKVDNALQSGNSQESVTEQDSKDSTYSLSSTLTLSKADYEKHKVYTCEVTHQGLSSPVTKSFNRGES

Biological target: 肿瘤细胞SKBR3表面的Her2抗原 (UniProt P04626 23-1255, limits assumed)
Assay: cell-based or functional assay

Binder | 对SKBR3细胞的杀伤 EC50浓度 (CTL, LDH release, PBMC effector cells)
B1 | 0.045 ng/mL
B2 | 0.034 ng/mL
B3 | 0.055 ng/mL
